19 sequences from the DeepSol protein solubility set can be followed below.

A short description of this data set: soluble on expression in E. coli; label from the status in PepcDB or PDB records.
As to “RSFGLIIPDLENTSYARLAKLIEQNSRKAGYQILIGCSDDDPETEKKVAEALISRRIDALFVASGMPSANEYYLKLQNSGTPVIALDRPMDDEHFCCVISEDFDAAFELTESVLSPEIKTIGLIGALQDLQVSKERELGFRSACQKDDTAMTVGYGLHFSREEGKKVLDKWVQADSLPDAIVTTSYTLLEGVLDVMLEKPELMSQVRLATFGDNRLLDFLPVKINSLPQQFELIADSAMELALNASAKRYKPGVELIPRKIVKRQ”, the “soluble on expression in E. coli” value was “not soluble”.
Under “MGSDKIHHHHHHMMNIPPFINTIIGQQPYPLLFAIISGSHLYGFPSPDSDYDLRGVHILPVEEVVGLETGNETIEVSEIREALEIDLVTHDVKKFFLMLLKKNGYVLEQLYSPLVLTTSPEAEELKFIAKGCITRNHYYHYIGFAATQWKLFENERTYRLKPLLYVYRVLLTGIYLMQTGIVEANLMKLNEVFNLPYIHDLITQKIAGKEKSVVSNVNVDFHQIEYERLRHKLQEVYESSRLPEVPSANAALHNLLVRLRTNVKLRK” stands “not soluble”; under “MKTLFAFFILIFSNIVYAAPKAELWAYWQASNDSNTASVSHQAWQSILDRNLVQVGENALFRYAEVTKEDKTLLNDYLDQLSKLDPREFNRQEQYAYWVNLYNALTVKLILDNYPVASITKLGGLFSFGPWDEKVFTVAGQTLTLNDIEHRILRPIWKDPRTHYAVNCASLGCPNLQSQAFTAQNTERLLSNAAHTFINSSKGATLNNDTLILSSIYDWFAVDFGNKKELLIHLAQYRPELSLYSGKIDYQYDWKLNDTKEKKLEHHHHHH”, “soluble”.
For the sequence “MSLNEITLNVLYNLPGFTKFHQPLADEFMKKNPDVKINFLAPAAGYNEGQQQVLRSAVTGNLPDVYFSGYNLTAELVHTLAPRNQITDLGPFIQAEGGQAFLDKNYSPKMAALGQIDGKQYGLPVNASSPIIYINSDLVTKAGGDPDKMPTTFPELIALAKKIKALDPKFAGMSYDINGWPDDWLWQALVVEQGGKLVDDKTKTVAFDNEIGLNALKMTRQFVTEGGQNLLDWDQSRQQFGAGLTGFIFSTPAHVQTIQGLVGDRFKLKTATFPLDNKEKGGVPTGGNSAVILTQEKAKQDAAWKYLKWITGPEAQNTIVRITGYLPTNKLATGPDFLAPYYVENPNVKTASLQADRSLPWAGYPGGDSVRIWRTQRDIIGTVMRGEVTPEAGLKQIVEQTNALLKEGHHHHHH”, the “soluble on expression in E. coli” value is “soluble”.
Take “SSENLDKSNVNEAGKSKSNDSEEGLEDAVEGADEALQKAIKSDSSSPQRVQRPHSSPPRFVTVEELLETARGVTNMALAHEIVVNGDFQIKPVELPENSLKKRVKEIVHKAFWDCLSVQLSEDPPAYDHAIKLVGEIKETLLSFLLPGHTRLRNQITEVLDLDLIKQEAENGALDISRLAEFIIGMMGTLCAPARDEEVKKLKDIKEIVPLFREIFSVLDLMKVDMANFAISSIRPHLMQQSVEYERKKFQEILERQPNSLDFVTQWLEEASEDLMTQKYKHALPVGGMAAGSGDMPRLSPVAVQNYAYLKLLKWDHLQRPFPETVLMDQSRFHELQLQLEQLTILGAVLLVTFSMAAPGISSQADFAEKLKMIVKILLTDMHLPSFHLKDVLTTIGEKVCLEVSSCLSLCGSSPFTTDKETVLKGQIQAVASPDDPIRRIMESRILTFLETYLASGHQKPLPTVPGGLSPVQRELEEVAIKFARLVNYNKMVFCPYYDAILSKILVRS”: the “soluble on expression in E. coli” value is recorded as “soluble”.
Next, “MFGTNGNAGIAVTDPTKQAEIYRALESLKKDESGWKKSVDSFIGPHKPSPEEQFLLLQVIEDYLNKRYHSSSQGDVSVIRTFLLHYTKNSRSSTVDQPAFLTNKMAHIFSLVFAADFPERWSSFFNDLFFSDNINDRKVAFFYLKVLLAIDTEVVNRDIQRSKNESDRNIKIKDAMREICINEIAKSWLTIANALPEDNVIQCLVLDNIASYVDWIELDLVANDYVMPLIISKFQNPATSESATAAVCSLLEKGMPAEKKVGLTLTIMTVLRSNGLLTVNDNNDEEEVTRVGSLVNTLGLVLLDVQNKLCASSILEKEQECCVQEMAGLAEPALVVLNNEDPDLSCMCIDYIRAYCSFLLKFHPNETNFIEKVIRAGLQRYVMNDDMTVGGDGEDEVEFQEFRRELRSMLNVIGLKRPEAIINAVEPWTAEVTSGGSSIPVNRIEALLNVIFHLHEIIPSNMLQSPREGISQRAARLPIVILEGLVLDGRCPAIHVLYFELACRYERLLVLQPQPVVIPHIAAAFLDQRGISISSANVRTRIVYLFCRFVKSHKTVLGPLVSEVITRLAPLLAVSPQADTNQLLSPEDQGYIFEATATLIVFGDLTSEMKSQYVGELASTLAMKFENGLVELNTARARKADEETIQAILQFMSNIIGYSSRMSKAFNNAQSMKACNCIDIYLRLIKLYLETLSPQNAFLLESTRQFAHRLVVSMENELMPYMNGIFDKLALVSTDLDSMHHLLIFCHQTVAKYKKAMLTSGVDLGNVLAIAARASLQEQENNIPAKDDSQRALLYVQRAFVQLLYTVIASDCTPALNTTPGLLDHVLESAARLALSSDQTAQKVALSCLAKISLITPSWSARTLRVALEIPSLSHITPSDAGSTLVVHEVCATLTSLHQSDPDGFTRALRELVPNGFSDQLLSALTNLKGKNLDKQVMNLYSSLRNQSAQ”: “not soluble”; “MAGDPMLNSFKLSLQYILPKLWLTRLAGWGASKRAGWLTKLVIDLFVKYYKVDMTEAQKPDTASYRTFNDFFVRPLRDDVRPLNTDPNILVMPADGVISQLGRIEEDKILQAKGHNYSLEALLAGNYLMADKFRNGTFVTTYLSPRDYHRVHMPCNGILREMIYVPGDLFSVNHLTAQNVPNLFARNERVICLFDTEFGPMAQILVGATIVGSIETVWAGTITPPREGIIKRWTWPEGEHEGSVALLKGQEMGRFKLGSTVINLFAPGKVNLIASLASLSVTKIGQPLATSTETFVAPEVEPAPLPAEEIKAEHDASPLVDNKKDDTLEHHHHHH”: “soluble”.
Under “MTSPMTSKDSKLTLAEKVWRDHVVSQGEGDQPDLIFIDLQLLHEVTSPQAFDGLRMAGRTLRHPELHLATEDHNVPTEGIHNGSLLEINDLVSRTQVETLRKNCEEFGVRLHAMGDKKQGIVHQVGPQLGATQPGMTIVCGDSHTSTHGAFGAMAFGIGTSEVEHVMATQTLSLKPFKTMAINVTGELQPGVTAKD” stands “not soluble”; under “MRPLKISRDELLQRCAGTFRRYGYHGTTMEMLSSACGLTKASFYHHYPNKEALLRDVLEWTHQRLAETLFSIAYDPLLTPRERLEKLGRKAARLFQDDSIGCLMGVVAVDASYGRSELMAPIRSFLDDWAQAFAQLYRPAFDEAQALERGRQLVADFEGAILLARIYGEPGYIDGVTRRALEQLAG”, “not soluble”; under “MGSDKIHHHHHHMLHGTTTKAADALDITQPAVSKILLQLTNKAGFPLFRNHRQRLIPTPEAHMLYAEVRRLFETVRGISQIAKEIRELRSGRLNISALPAFGSTLMPSIIASFTKQYPDVAITLDIRSSSTIIQRAGRNQLDIGVASEVNDETPSVVRRALIATPPVCVMPKGHPLSKLSVVQPDDFDGLNFVSLGVGDPMRKQLDELCEQRGVNRSLKVEAALSHSCINLVANGVGVTVVDRLSAWMAKDLPIEIRDFQPHLDINLSVYRPWGTIASSVADTFIEHLIQSTREYMNVVDRGIKALSEQ”, “not soluble”.
Consider “MGSDKIHHHHHHMRRSSVFAGSDGQLDLFVGAGSNIAARDAQDLMAWPFFSLAKTKRVRPIDFRMGEVSILVEATAEHGMATIWDADVLIWVASQIVEARDCGRSTSRLIAATPHEILSFTRRGTGKASYERLKAGLDRLQSTTVATSIRQPHQRRRHRFSWINEWRECLDSSGRALGIEMIVPDWFYEGVLDAALVLTIDRAYFGLTGGLERWLYRIVRKHGGKQKGGWSFDVAHLHLKSGALSPLKRFAFELRDIVRRQPLPGYRLELEHALGRERLSFVCIPEDSFDAAMRRLGYSGVDNP”, for which the “soluble on expression in E. coli” value is “not soluble”.
In the case of “GPGSMLSRIKKQQAETRDAAGQSHSSGGGPSTASSEPVAILRLKKDLDNLDGIRSTIDIPDPQNMLRMKVTVRPPYPSIWQGGIFEFLLEFREDYPYEGPRVRYLGPYRIWHPNIEGDEYMEGEGGLRGDVKNTWGVCLSFQTEWKPTMSLRDIIIMIELLFQDPNPDDPLHGTAKQAAQMMKDNPAKFRDKARRWMRGGYIE”, the “soluble on expression in E. coli” value is given as “soluble”.
Take “QAMFERFTDRARRVIVLAQEEARMLNHNYIGTEHILLGLIHEGEGVAAKALESMGISLDAVRQEVEEIIGQGSQPTTGHIPFTPRAKKVLELSLREGLQMGHKYIGTEFLLLGLIREGEGVAAQVLVKLGADLPRVRQQVIQLLSG”: the “soluble on expression in E. coli” value is given as “soluble”.
Consider “MGSDKIHHHHHHAEQKEEGISVLRYDKLLSEYVRSNSFSAMQKLTMDYRQPTKILIEDVLSIGTVKDDTISQRLQKFYSDSTLLRLLSDVEAKYPNLDEVEKGLTKGFRKLKKEVPDTKIPFIYSQISAFNESIILVDTLLGISLDKYMGEDYPLYKRFYYDYQCTSMRPERIVPDCFAFYLLSRYEMNYHEGTCLVDLMMHSGKINYVVQHLLGYDDIGQAMGYSDQENEWCRKNEKDIWEYICANDHLHARDPMVIRYYMKPAPTVDMLGGQAPALIGSWVGARIIASYMKKHKDLKIKDLLELTDYQSMFEESGYLKL”, for which the “soluble on expression in E. coli” value is recorded as “not soluble”.
“MVGVLFTFFAWCQRDRDVVGTPFVSIRGIFQADHRAWCENRRRELTKPDGWMSLIGLHWLGPKAHYIGSSPDNGIRLAMGPPDMGMIERDGDVVWFTPHAGVPLTVDGQPLRGRVRVFSDADLTPTTIGFDDGKGWLTLLRRGDRFALRVKHVNAPSRLHFTGLEYWPSDPEWRISARYLPNKAGATLSIFNIVGMTANVPNAGVIAFERLGHTYRLQAIRAAGQALFVMFADRTSGHGSYPAGRFLEVDAPDKQGSVVLDFNRAYNPPCAFTLFTTCLLPPSENRLNLAVTAGEKAYHVSTVLPLEHHHHHH”: the “soluble on expression in E. coli” value is “not soluble”.
Turning to “MNHMKKNILFDGLRSVARIGETAFVAARAGIKYATEKPSNAKLMRETFESLGSTYIKLGQFIASTPSLFPREYVEEFQGCLDQTPTLPFSYIQEVLAEEFEGRDLNQIFASIDETPLASASIAQVHAARLTTGEDVVIKVQKPGVETILYTDLNVVHWATKMLEKAIPKVKFASLSEIVEEIKIRMVREVDFIEEAQNLDDFVEYLKITNNQAATAPKVYHQFSTRRILTMERLYGVSLTDFDIVKKFAKDPSQVLITAMNTWFGSLMLCKSFHADLHAGNLMLLEDGRIGFIDFGIVGQLNPQVWTACLAFMDALQKTDYTAMAENMLKMGMTKTQIDTQVLAQDLERLFSGVLLADPQEILASKPSDLNDIMLDMVAVGERHGIKFPRDFALLFKQMLYFDRFMRVLAPYTDIYADQRLKMVQTIEPQSLLKHLEHHHHHH”, the “soluble on expression in E. coli” value was “soluble”.
On to “GSLVPELNEKDDDQVQKALASRENTQLMNRDNIEITVRDFKTLAPRRWLNDTIIEFFMKYIEKSTPNTVAFNSFFYTNLSERGYQGVRRWMKRKKTQIDKLDKIFTPINLNQSHWALGIIDLKKKTIGYVDSLSNGPNAMSFAILTDLQKYVMEESKHTIGEDFDLIHLDCPQQPNGYDCGIYVCMNTLYGSADAPLDFDYKDAIRMRRFIAHLILTDALK”, for which the “soluble on expression in E. coli” value is “soluble”.
Next, “MAGSSEEAPDYGRGVVIMDDWPGYDLNLFTYPQHYYGDLEYVLIPHGIIVDRIERLAKDIMKDIGYSDIMVLCVLKGGYKFCADLVEHLKNISRNSDRFVSMKVDFIRLKSYRNDQSMGEMQIIGGDDLSTLAGKNVLIVEDVVGTGRTMKALLSNIEKYKPNMIKVASLLVKRTSRSDGFRPDYAGFEIPNLFVVGYALDYNEYFRDLNHICVINEHGKEKYRV”: “soluble”; “MAPSQAPSRDRAGQEDEDRWEARGDRKARKPLVEKKRRARINESLQELRLLLAGTEVQAKLENAEVLELTVRRVQGALRGRAREREQLQAEASERFAAGYIQCMHEVHTFVSTCQAIDATVSAELLNHLLESMPLREGSSFQDLLGDSLAGLPGGSGRSSWPPGGSPESPLSSPPGPGDDLCSDLEEIPEAELNRVPAEGPDLVSTSLGSLTAARRAQSVWRPW”: “not soluble”.
